T1: UGT1A8 (Homo sapiens, UniProt Q9HAW9)
T1 sequence (Q9HAW9 26-530): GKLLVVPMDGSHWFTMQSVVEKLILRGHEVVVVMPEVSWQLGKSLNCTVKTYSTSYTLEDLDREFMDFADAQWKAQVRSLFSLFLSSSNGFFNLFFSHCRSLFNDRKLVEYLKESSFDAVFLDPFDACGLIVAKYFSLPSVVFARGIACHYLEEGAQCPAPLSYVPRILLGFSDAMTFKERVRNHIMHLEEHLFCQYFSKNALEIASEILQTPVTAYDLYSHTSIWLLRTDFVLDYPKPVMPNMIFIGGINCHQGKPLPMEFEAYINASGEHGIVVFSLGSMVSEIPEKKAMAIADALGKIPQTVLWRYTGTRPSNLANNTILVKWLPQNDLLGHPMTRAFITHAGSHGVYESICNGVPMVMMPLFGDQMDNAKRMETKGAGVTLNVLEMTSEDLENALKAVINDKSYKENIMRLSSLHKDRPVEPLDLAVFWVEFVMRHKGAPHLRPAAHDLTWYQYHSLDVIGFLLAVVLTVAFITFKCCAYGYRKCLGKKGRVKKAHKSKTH

B1: UGT1A6 (Homo sapiens) (protein)
chain: DKLLVVPQDGSHWLSMKDIVEVLSDRGHEIVVVVPEVNLLLKESKYYTRKIYPVPYDQEELKNRYQSFGNNHFAERSFLTAPQTEYRNNMIVIGLYFINCQSLLQDRDTLNFFKESKFDALFTDPALPCGVILAEYLGLPSVYLFRGFPCSLEHTFSRSPDPVSYIPRCYTKFSDHMTFSQRVANFLVNLLEPYLFYCLFSKYEELASAVLKRDVDIITLYQKVSVWLLRYDFVLEYPRPVMPNMVFIGGINCKKRKDLSQEFEAYINASGEHGIVVFSLGSMVSEIPEKKAMAIADALGKIPQTVLWRYTGTRPSNLANNTILVKWLPQNDLLGHPMTRAFITHAGSHGVYESICNGVPMVMMPLFGDQMDNAKRMETKGAGVTLNVLEMTSEDLENALKAVINDKSYKENIMRLSSLHKDRPVEPLDLAVFWVEFVMRHKGAPHLRPAAHDLTWYQYHSLDVIGFLLAVVLTVAFITFKCCAYGYRKCLGKKGRVKKAHKSKTH
B2: UGT1A1 (Homo sapiens) (protein)
chain: HAGKILLIPVDGSHWLSMLGAIQQLQQRGHEIVVLAPDASLYIRDGAFYTLKTYPVPFQREDVKESFVSLGHNVFENDSFLQRVIKTYKKIKKDSAMLLSGCSHLLHNKELMASLAESSFDVMLTDPFLPCSPIVAQYLSLPTVFFLHALPCSLEFEATQCPNPFSYVPRPLSSHSDHMTFLQRVKNMLIAFSQNFLCDVVYSPYATLASEFLQREVTVQDLLSSASVWLFRSDFVKDYPRPIMPNMVFVGGINCLHQNPLSQEFEAYINASGEHGIVVFSLGSMVSEIPEKKAMAIADALGKIPQTVLWRYTGTRPSNLANNTILVKWLPQNDLLGHPMTRAFITHAGSHGVYESICNGVPMVMMPLFGDQMDNAKRMETKGAGVTLNVLEMTSEDLENALKAVINDKSYKENIMRLSSLHKDRPVEPLDLAVFWVEFVMRHKGAPHLRPAAHDLTWYQYHSLDVIGFLLAVVLTVAFITFKCCAYGYRKCLGKKGRVKKAHKSKTH
B3: UGT2B4 (Homo sapiens) (protein)
chain: GKVLVWPTEFSHWMNIKTILDELVQRGHEVTVLASSASISFDPNSPSTLKFEVYPVSLTKTEFEDIIKQLVKRWAELPKDTFWSYFSQVQEIMWTFNDILRKFCKDIVSNKKLMKKLQESRFDVVLADAVFPFGELLAELLKIPFVYSLRFSPGYAIEKHSGGLLFPPSYVPVVMSELSDQMTFIERVKNMIYVLYFEFWFQIFDMKKWDQFYSEVLGRPTTLSETMAKADIWLIRNYWDFQFPHPLLPNVEFVGGLHCKPAKPLPKEMEEFVQSSGENGVVVFSLGSMVSNTSEERANVIASALAKIPQKVLWRFDGNKPDTLGLNTRLYKWIPQNDLLGHPKTRAFITHGGANGIYEAIYHGIPMVGVPLFADQPDNIAHMKAKGAAVSLDFHTMSSTDLLNALKTVINDPLYKENAMKLSRIHHDQPVKPLDRAVFWIEFVMRHKGAKHLRVAAHDLTWFQYHSLDVTGFLLACVATVIFIITKCLFCVWKFVRTGKKGKRD
B4: UGT2B17 (Homo sapiens) (protein)
chain: GKVLVWPTEYSHWINMKTILEELVQRGHEVIVLTSSASILVNASKSSAIKLEVYPTSLTKNDLEDFFMKMFDRWTYSISKNTFWSYFSQLQELCWEYSDYNIKLCEDAVLNKKLMRKLQESKFDVLLADAVNPCGELLAELLNIPFLYSLRFSVGYTVEKNGGGFLFPPSYVPVVMSELSDQMIFMERIKNMIYMLYFDFWFQAYDLKKWDQFYSEVLGRPTTLFETMGKAEMWLIRTYWDFEFPRPFLPNVDFVGGLHCKPAKPLPKEMEEFVQSSGENGIVVFSLGSMISNMSEESANMIASALAQIPQKVLWRFDGKKPNTLGSNTRLYKWLPQNDLLGHPKTKAFITHGGTNGIYEAIYHGIPMVGIPLFADQHDNIAHMKAKGAALSVDIRTMSSRDLLNALKSVINDPIYKENIMKLSRIHHDQPVKPLDRAVFWIEFVMRHKGAKHLRVAAHNLTWIQYHSLDVIAFLLACVATMIFMITKCCLFCFRKLAKTGKKKKRD
B5: UGT1A7 (Homo sapiens) (protein)
chain: GKLLVVPMDGSHWFTMQSVVEKLILRGHEVVVVMPEVSWQLGRSLNCTVKTYSTSYTLEDQDREFMVFADARWTAPLRSAFSLLTSSSNGIFDLFFSNCRSLFNDRKLVEYLKESCFDAVFLDPFDACGLIVAKYFSLPSVVFARGIFCHYLEEGAQCPAPLSYVPRLLLGFSDAMTFKERVWNHIMHLEEHLFCPYFFKNVLEIASEILQTPVTAYDLYSHTSIWLLRTDFVLEYPKPVMPNMIFIGGINCHQGKPVPMEFEAYINASGEHGIVVFSLGSMVSEIPEKKAMAIADALGKIPQTVLWRYTGTRPSNLANNTILVKWLPQNDLLGHPMTRAFITHAGSHGVYESICNGVPMVMMPLFGDQMDNAKRMETKGAGVTLNVLEMTSEDLENALKAVINDKSYKENIMRLSSLHKDRPVEPLDLAVFWVEFVMRHKGAPHLRPAAHDLTWYQYHSLDVIGFLLAVVLTVAFITFKCCAYGYRKCLGKKGRVKKAHKSKTH
B6: UGT1A8 (Homo sapiens) (protein)
chain: T1 sequence (Q9HAW9 26-530)
B7: UGT1A10 (Homo sapiens) (protein)
chain: GKLLVVPMDGSHWFTMQSVVEKLILRGHEVVVVMPEVSWQLERSLNCTVKTYSTSYTLEDQNREFMVFAHAQWKAQAQSIFSLLMSSSSGFLDLFFSHCRSLFNDRKLVEYLKESSFDAVFLDPFDTCGLIVAKYFSLPSVVFTRGIFCHHLEEGAQCPAPLSYVPNDLLGFSDAMTFKERVWNHIVHLEDHLFCQYLFRNALEIASEILQTPVTAYDLYSHTSIWLLRTDFVLDYPKPVMPNMIFIGGINCHQGKPLPMEFEAYINASGEHGIVVFSLGSMVSEIPEKKAMAIADALGKIPQTVLWRYTGTRPSNLANNTILVKWLPQNDLLGHPMTRAFITHAGSHGVYESICNGVPMVMMPLFGDQMDNAKRMETKGAGVTLNVLEMTSEDLENALKAVINDKSYKENIMRLSSLHKDRPVEPLDLAVFWVEFVMRHKGAPHLRPAAHDLTWYQYHSLDVIGFLLAVVLTVAFITFKCCAYGYRKCLGKKGRVKKAHKSKTH
B8: UGT2B15 (Homo sapiens) (protein)
chain: GKVLVWPTEYSHWINMKTILEELVQRGHEVTVLTSSASTLVNASKSSAIKLEVYPTSLTKNYLEDSLLKILDRWIYGVSKNTFWSYFSQLQELCWEYYDYSNKLCKDAVLNKKLMMKLQESKFDVILADALNPCGELLAELFNIPFLYSLRFSVGYTFEKNGGGFLFPPSYVPVVMSELSDQMIFMERIKNMIHMLYFDFWFQIYDLKKWDQFYSEVLGRPTTLFETMGKAEMWLIRTYWDFEFPRPFLPNVDFVGGLHCKPAKPLPKEMEEFVQSSGENGIVVFSLGSMISNMSEESANMIASALAQIPQKVLWRFDGKKPNTLGSNTRLYKWLPQNDLLGHPKTKAFITHGGTNGIYEAIYHGIPMVGIPLFADQHDNIAHMKAKGAALSVDIRTMSSRDLLNALKSVINDPVYKENVMKLSRIHHDQPMKPLDRAVFWIEFVMRHKGAKHLRVAAHNLTWIQYHSLDVIAFLLACVATVIFIITKFCLFCFRKLAKKGKKKKRD
B9: UGT2B7 (Homo sapiens) (protein)
chain: GKVLVWAAEYSHWMNIKTILDELIQRGHEVTVLASSASILFDPNNSSALKIEIYPTSLTKTELENFIMQQIKRWSDLPKDTFWLYFSQVQEIMSIFGDITRKFCKDVVSNKKFMKKVQESRFDVIFADAIFPCSELLAELFNIPFVYSLSFSPGYTFEKHSGGFIFPPSYVPVVMSELTDQMTFMERVKNMIYVLYFDFWFEIFDMKKWDQFYSEVLGRPTTLSETMGKADVWLIRNSWNFQFPYPLLPNVDFVGGLHCKPAKPLPKEMEDFVQSSGENGVVVFSLGSMVSNMTEERANVIASALAQIPQKVLWRFDGNKPDTLGLNTRLYKWIPQNDLLGHPKTRAFITHGGANGIYEAIYHGIPMVGIPLFADQPDNIAHMKARGAAVRVDFNTMSSTDLLNALKRVINDPSYKENVMKLSRIQHDQPVKPLDRAVFWIEFVMRHKGAKHLRVAAHDLTWFQYHSLDVIGFLLVCVATVIFIVTKCCLFCFWKFARKAKKGKND

Each molecule was assayed on Oc1cccc2ccccc12 (assay: purified protein, by the assay type). Conditions: pH 7.4.

Molecule | K0.5
B1 | 8.07±0.48(7.08–9.06) uM
B2 | 101±11(78–123) uM
B3 | 210±12(186–235) uM
B4 | 540±26(485–595) uM

Each molecule was assayed on CCN(CC)C(=O)/C(C#N)=C/c1cc(O)c(O)c([N+](=O)[O-])c1 (assay: purified protein, by the assay type). Conditions: pH 7.4.
Experimental: Protein concentrations were determined by the BCA method (Pierce Biotechnology, Rockford, IL, USA).
(§1) The protein concentrations and incubation times for the enzyme kinetic assays were selected based on preliminary assays in order to ensure that the product formation was within the linear range with respect to both protein concentration and time, and that the substrate consumption during the reaction was less than 10%. The initial velocity measurements were performed in either duplicates or triplicates and they are presented as the average values and S.E.
The HPLC system consisted of an Agilent 1100 series degasser, binary pump, 100-vial autosampler, thermostated column compartment, multiple wavelengths UV detector, and fluorescence detector (Agilent Technologies, Palo Alto, CA, USA). […] The resulting chromatograms were analyzed with Agilent ChemStation software (rev. B.01.01) on Windows XP Professional. The UPLC system consisted of a Waters Acquity UPLC equipped with column manager, sample manager, binary solvent pump, and photodiode array UV detector (Waters, Milford, MA, USA). The UV detector was equipped with high-sensitivity 2.4 µL flow cell.
(§2) In assays containing BSA, the total concentrations of substrate were corrected according to the measured drug binding to BSA, under the specific conditions of each glucuronidation assay.

Molecule | K0.5 | Vmax [µmol/min/mg]
B5 | 33.2±4.0(24.9–41.6) uM | 0.00015
B6 | 73.1±3.7(65.4–80.7) uM | 0.0012
B7 | 56.7±2.3(51.9–61.5) uM | 0.00091

These molecules were tested on Cc1cc(=O)oc2cc(O)ccc12 (assay: purified protein, by the assay type). Conditions: pH 7.4.

Molecule | K0.5 | Vmax [µmol/min/mg]
B6 | 134±9(115–154) uM | 0.0012
B8 | 29.6±0.9(27.6–31.5) uM | 0.00083
B1 | 76.4±15.1(45.3–107.5) uM | 0.0052
B2 | 72.6±6.9(58.2–87.0) uM | 0.00011
B9 | 301±65(165–436) uM | 0.00028
B3 | 298±43(210–387) uM | 
B4 | 377±42(291–463) uM | 5e-05

Each molecule was assayed against T1, UGT1A8 (assay: UGT1A8-catalyzed glucuronidation, enzyme kinetics). Conditions: 1% DMSO; entacapone glucuronidation; absence and presence of 0.1% BSA.
Experimental: Recombinant human UGTs 1A1, 1A6, 1A7, 1A8, 1A10, 2A1, 2B4, 2B7 and 2B17 were expressed as His-tagged proteins in baculovirus-infected insect cells as described previously [14]. […] Protein concentrations were determined by the BCA method (Pierce Biotechnology, Rockford, IL, USA).
as §1
The glucuronidation rates by recombinant enzymes are reported as “expression normalized” values. The relative expression level of each recombinant UGT that was produced in our laboratory was determined using immunoblotting, as previously described [14], [19]. The dot blot assays were performed in triplicate and the average value was used for normalization. […] The “expression normalized” glucuronidation rates were calculated by dividing the measured glucuronidation rates with relative expression level of the each given recombinant UGT.
as §2

Molecule | reduction of the UGT activity [%]
C[S+](C)[O-] [DMSO, Dimethyl sulfoxide] | ≤ 15

— publication PMC3553014, “Albumin Stimulates the Activity of the Human UDP-Glucuronosyltransferases 1A7, 1A8, 1A10, 2A1 and 2B15, but the Effects Are Enzyme and Substrate Dependent” (PLoS ONE, 2013)
